Assays:
[1] = biological target: Mouse Immunoglobulin G (mouse); test: optical weak value amplification (WVA) sensor; oriented strategy: mouse IgG captured on immobilised protein G; 30 µg/mL protein L injected until the signal was saturated (120 min); 25 °C
[2] = biological target: Recombinant protein G; test: optical weak value amplification (WVA) sensor; recombinant protein G (50 µg/mL, 30 min) immobilised on polydopamine on the prism, surface blocked; 10 µg/mL antibody (mouse IgG) injected at 30 µL/min for 120 min; PBS, 25 °C; reference channel with PBS subtracted; curves fitted with the intraparticle diffusion model

Substance | fold binding sites, against randomly immobilised IgG [1] [times] | Kid,1 (intraparticle diffusion rate constant, surface diffusion stage) [2] [a.u.min^−1/2] | Kid,2 (intraparticle diffusion rate constant, intraparticle diffusion stage) [2] [a.u.min^−1/2] | Kid,3 (intraparticle diffusion rate constant, intraparticle diffusion stage) [2] [a.u.min^−1/2] | fold antibody immobilised, against random immobilisation on polydopamine [2] [fold]
Recombinant protein L | 1.59 |  |  |  | 
Mouse Immunoglobulin G (antibody) |  | 454 | 239 | 83.9 | 2.27

Reference: article PMC12157903
